# Measurements as given in patent US20200255503A1.
# Where a chain is given by its changes, count along the chain named.
# B1: H1M1241N (antibody, V domains shown)
# VH: EVQLVESGGGLVKPGGSLRLSCAASGFTFSSYSMNWVRQAPGKGLEWVSSISSRSSYIYYADSVKGRFTISRDNAKNSLYLQMNSLRAEDTAVYYCARDHIVVVPGASYYYYGMDVWGQGTTVTVSS
# VL: DIQMTQSPSSLSASVGDRVTITCRASQGIRNDLGWYQQKPGKAPKRLISAASSLQSGVPSRFSGSGSGTEFTLTISSLQPEDFATYYCLQHNSYPLTFGGGTKVEIK
# B2: H1M1230N (antibody, V domains shown)
# VH: EVQLVESGGGLVQPGGSLRLSCTASGFIFSNFWMTWVRQAPGKGLEWVANIKQDGSETYCVDSVKGRFTISRDHAKNSLFLQMNSLRAEDTAVYYCARGAGTIYYYGMDVWGQGTTVIVSS
# VL: DIQMTQSPSSVSASVGDRLTITCRASQDISSWLTWYQQKPGKAPNLLIYAASGLQSGVPSRFSGSGSGTDFTLTISNLQPEDFATYYCQQANSFPLTFGQGTRLEIK
# B3: H2M1233N (antibody, mouse IgG2, V domains shown)
# VH: QVVLVESGGGVVQPGRSLRLSCAASGFTFSSYGMHWVRQAPGKGLEWVAVIWYDGSNKYYVDSVKGRFTISRDNSNNTIYLQMNSLRAEDTAVYYCARSLIPVAGTDPIFGYWGQGTLVTVSS
# VL: DIQMTQSPSTLSASVGDRVTITCRASQSVSSWLAWYQQKPGKAPKLLIFKASGLESGVPFRFSGSGSGTEFTLTISSLQPDDFATYYCQQYNTYSPTFGQGTKVEIK
# B4: H2M1237N (antibody, mouse IgG2, V domains shown)
# VH: B3 VH with N57I, V61A, S99A
# VL: B3 VL with A51T
# B5: H2M1242N (antibody, mouse IgG2, V domains shown)
# VH: EVQLVESGGGLVRPGGSLRLSCAASGFTFTSYAMNWVRQAPGKGLEWVSSISSYSSYIYIADSVKGRFTLSRDNAKNSLYLQMHSLRPEDTAVYFCAREGYSAYSYFDFWGRGTLVTVSS
# VL: B3 VL with S30I, F49H, K50R, G53S, F60S, S77G, S95F, I106V
# B6: H2M1236N (antibody, mouse IgG2, V domains shown)
# VH: QVQLQESGPGLVKPSETLSLTCTVSGGSISNYYWSWIRQPPGKGLEWIGYIYYSGRTNYNPSLKSRVTISVDTSKNQFSLKLRSVTAADTAVYYCARHRITRTADSFDYWGQGTLVTVSS
# VL: DIQMTQSPSSLSASVGDRVTITCQASQDITNYLNWYQQKPGKAPKLLIYDASNLETGVPSRFSGSGSGTDFTFTISSLQPEDVATFYCHQYGDLPYTFGQGTKLEIK
# B7: H4H2590S (antibody, human IgG4, V domains shown)
# VH: QVQLVESGGGLVKPGGSLRLSCAASGFTFSDYYMNWIRQAPGKGLEWISYISSGGSTTYYADSVKGRFTISRDNAKNSLYLQMNSLRAEDTAVYYCARDGKYNTSPGDYWGQGTLVTVSS
# VL: EIVLTQSPDFQSVTPKEKVTITCRASQSIGSSLHWYQQKPDQSPKLLIKYASQSFSGVPSRFSGSGSGTDFTLTINSLEAEDAATYYCLQSSSLRTFGQGTKVDIK
# B8: H4H2608B (antibody, human IgG4, V domains shown)
# VH: B7 VH with Q1E, G54S, G55D, S56D, S105V, P106A, Y109H
# VL: EIVMTQSPDFQSVAPKEKVTITCRASQNIGSSLHWYQQKPDQSPKLLIKYASQSFSGVPSRFSGSGSGTDFTLTINSLEAEDAATYYCLQSYTLRTFGQGTKVEIKR
# B9: H4H2607B (antibody, human IgG4, V domains shown)
# VH: B7 VH with Q1E, I51L, G54S, T57A, S105V, P106A, L115T
# VL: DIQLTQSPSSLSASVGDRVTITCRASQGIRNDLGWYQQKPGKAPKRLIYAASSLQSGVPSRFSGSGSGTEFTLTISSLQPEDFATYYCLQHNSYPYTFGQGTKVEIKR
# B10: H4H2592B (antibody, human IgG4, V domains shown)
# VH: B7 VH with G54S, Y80F, A88G, K101R, S105V, P106A, L115T
# VL: B8 VL with S31G
# B11: H4H2797P (antibody, human IgG4, V domains shown)
# VH: QVQLVESGGGVVLPGRSLRLSCAASGFTFSSYLMYWVRQAPGKGLEWVAVIWYDGSNKFYGDSVKGRFTISRDNSKNTLYLQMNSLRAEDTAVYYCARDNGNSGYEDSWNAFDIWGQGTMVTVSS
# VL: DIQMTQSPSSLSASVGDRVTITCRASQDIYNYLAWFQQKPGKAPKSLIYAASSLQTGVPSQFSGSGSGTDFTLTISSLQPEDFATYYCQQYNNYPFTFGPGTKVDIK
# B12: H4H2597B (antibody, human IgG4, V domains shown)
# VH: EVQLVESGGGLVQPGGSLRLSCAVSGFTFSNYAMNWVRQAPGKGLEWVSVISDSGRSTYYADSVKGRFTISRDNSKNTLYLQMNSLRAEDTAVYFCAKRYNWNLHYFDYWGQGTTVTVSS
# VL: B8 VL with M4L, A14T, N28S, S31G, Y92S, T93S
# B13: H4H2606B (antibody, human IgG4, V domains shown)
# VH: EVQLVESGGGLVKPGGSLRLSCAASGFTFSDYYMNWIRQAPGKGLEWVSYISSSGNSIYYADSVKGRFTISRDNAKNSLFLQMSSLRAEDTAVYYCARDGRYNDRRRGYYWGQGTLVTVSS
# VL: B8 VL with A14T, N28S, Y92S, T93S
# Biological target: natural Fel d1 (cat (Felis domesticus)) (UniProt P30438)
# Assay: SPR, mAb captured, nFel d1 injected, 25 C
Kd,koff,kon,t1/2,Binder
3.63 nM,0.000662 s⁻¹,182000 M⁻¹ s⁻¹,17 min,B1
3.37 nM,0.000869 s⁻¹,258000 M⁻¹ s⁻¹,13 min,B2
1.4 nM,0.000353 s⁻¹,253000 M⁻¹ s⁻¹,33 min,B3
0.982 nM,0.000276 s⁻¹,281000 M⁻¹ s⁻¹,42 min,B4
3.14 nM,0.000604 s⁻¹,192000 M⁻¹ s⁻¹,19 min,B5
4.55 nM,0.00142 s⁻¹,312000 M⁻¹ s⁻¹,8 min,B6
0.655 nM,0.000802 s⁻¹,1.23e+06 M⁻¹ s⁻¹,14 min,B7
2.05 nM,0.00106 s⁻¹,516000 M⁻¹ s⁻¹,11 min,B8
0.307 nM,0.00091 s⁻¹,2.97e+06 M⁻¹ s⁻¹,13 min,B9
0.641 nM,0.000728 s⁻¹,1.14e+06 M⁻¹ s⁻¹,16 min,B10
35.4 nM,0.00713 s⁻¹,202000 M⁻¹ s⁻¹,2 min,B11
0.65 nM,0.0015 s⁻¹,2.31e+06 M⁻¹ s⁻¹,8 min,B12
0.765 nM,0.000707 s⁻¹,924000 M⁻¹ s⁻¹,16 min,B13
